The record followed here is patent publication US20220251219A1 (published 2022).

Experiment [1] addresses T1, recombinant mouse Sortilin (mouse, UniProt Q6PHU5 74-825).
T1 construct: also called mSort
Nature of the experiment: flow cytometry, 10 ug/ml antibody on 293 cells expressing recombinant mouse Sortilin, PE anti-human secondary.
Protocol: (§1) Cells were harvested, plated at 10⁵/ml in a 96 well plate, washed, and incubated in 100 μl PBS containing 10 μg/ml Mab and 2% FBS for 1 hour in ice. Cells were then washed twice and incubated in 100 μl PBS+2% FBS containing 5 μg/ml PE-conjugated anti-human secondary antibody for 30 minutes in ice. Cells were washed twice in cold PBS and data was acquired on a BD FACS Canto. Data analysis and calculation of MFI values was performed with FlowJo (TreeStar) software version 10.0.7.

Experiment [2] addresses T2, recombinant human Sortilin (human, UniProt Q99523 78-830).
T2 construct: also called hSort; SORT1
As to the kind of experiment: flow cytometry, 10 ug/ml antibody on 293 cells expressing recombinant human Sortilin, PE anti-human secondary.
Protocol: as §1

In experiment [3] the target is T3, mouse Sortilin expressed on HEK293T cells (mouse, UniProt Q6PHU5 74-825).
T3 construct: also called msSort; mSort
Nature of the experiment: flow cytometry, antibody titration on HEK293T cells transiently expressing mouse Sortilin, 4 C, apparent KD by non-linear fit.
Protocol: (§2) Antibodies were diluted in FACS buffer (PBS+2% FBS+0.01% NaAzide). After incubation on ice for 1 h, cells were washed three times in FACS buffer and incubated with anti-human PE conjugated secondary antibody (BD Biosciences, 1:100 dilution) for 30 min on ice. Then cells were washed twice in 200 μl FACS buffer, and subsequently analyzed on a FACS Canto or iQE FACS screening instrument (Intellicyt Corp).

For experiment [4], the target named is T4, human Sortilin expressed on HEK293T cells (human, UniProt Q99523 78-830).
T4 construct: also called hSort; HEK293T + hSort
Nature of the experiment: flow cytometry, antibody titration on HEK293T cells stably expressing human Sortilin, 4 C, apparent KD by non-linear fit.
Protocol: as §2

B1: anti-Sortilin antibody S-84 (antibody, V domains shown)
VH: QLQLQESGPGLVKPSETLSLTCTVSGGSISSSSYYWGWIRQPPGKGLEWIGSISYSGSTYYNPSLKSRVTISVDTSKNQFSLKLSSVTAADTAVYYCARGGTTWLVADVWGQGTMVTVSS
VL: not shown
notes: Tested as full IgG made in yeast
As for B1, the MFI binding in experiment [1] stood at 15400 MFI; in experiment [2] it was 9240 MFI.

B2: anti-Sortilin antibody S-78 (antibody, V domains shown)
VH: QLQLQESGPGLVKPSETLSLTCTVSGGSISSSDYYWGWIRQPPGKGLEWIGSIYYSGSTYYNPSLKSRVTISVDTSKNQFSLKLSSVTAADTAVYYCARSLAMSGAYFDLWGRGTLVTVSS
VL: not shown
notes: as for B1
As for B2, the MFI binding in experiment [1] was 7930 MFI; in experiment [2] it was 7120 MFI.

B3: anti-Sortilin antibody S-15-6-12 (antibody, V domains shown)
VH: QVQLVQSGAEVKKPGASVKVSCKASGYTFTSRYMSWVRQAPGQGLEWMGIINPVGGSTSYAQKFQGRVTMTRDTSTSTVYMELSSLRSEDTAVYYCARDPSGIALAGPGSRYYRGMDVWGQGTTVTVSS
VL: EIVMTQSPATLSVSPGERATLSCRASQSVSSNLAWYQQKPGQAPRLLIYGASTRATGIPARFSGSGSGTEFTLTISSLQSEDFAVYYCQQARLGPWTFGGGTKVEIK
In the case of B3, the Kd in experiment [3] is 6.62 nM; in experiment [4] it was 3.84 nM.

B4: anti-Sortilin antibody S-15-10-13 (antibody, V domains shown)
VH: QVQLVQSGAEVKKPGASVKVSCKASGYTFTKYYMSWVRQAPGQGLEWMGIINPIGGSTSYARKFQGRVTMTRDTSTSTVYMELSSLRSEDTAVYYCARDPSGIAAAYPASRYNYGMDVWGQGTTVTVSS
VL: EIVMTQSPATLSVSPGERATLSCRASQSVSSNLAWYQQKPGQAPRLLIYGASTRATGIPARFSGSGSGTEFTLTISSLQSEDFAVYYCQQARLGPWTFGGGTKVEIK
B4: the Kd in experiment [3] turned out to be 4.07 nM; in experiment [4] it was 2.88 nM.

B5: anti-Sortilin antibody S-81 (antibody, V domains shown)
VH: QLQLQESGPGLVKPSETLSLTCTVSGGSISSSSYYWGWIRQPPGKGLEWIGSIYYSGSTYYNPSLKSRVTISVDTSKNQFSLKLSSVTAADTAVYYCARERWDLGHGMDVWGQGTTVTVSS
VL: not shown
notes: as for B1
In the case of B5, the MFI binding in experiment [1] amounted to 16600 MFI; in experiment [2], 8940 MFI.
